Source: patent publication US20110243929A1

Experiments:
[1] = biological target: cynomolgus ICOS (cynomolgus); assay: flow cytometry, cynomolgus splenic memory T cells (CD4+ CD45RA-)
[2] = biological target: cynomolgus ICOS (cynomolgus); assay: flow cytometry, cynomolgus mesenteric lymph node activated T cells (CD4+ CD45RA-)
[3] = biological target: cynomolgus ICOS (cynomolgus); assay: flow cytometry, cynomolgus mesenteric lymph node naive T cells (CD4+ CD45RA+)
[4] = biological target: cynomolgus ICOS (cynomolgus); assay: flow cytometry, cynomolgus splenic naive T cells (CD4+ CD45RA+)

Sequence of cynomolgus ICOS (cynomolgus) (A0A2K5 entry or part of it limits assumed): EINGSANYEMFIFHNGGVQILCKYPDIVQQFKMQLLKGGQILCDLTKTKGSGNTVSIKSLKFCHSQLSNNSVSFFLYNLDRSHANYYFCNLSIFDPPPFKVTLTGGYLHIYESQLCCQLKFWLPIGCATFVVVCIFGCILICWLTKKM

- % of gated cells in the positive quadrant [1]: 2.4%
- % of gated cells in the positive quadrant [2]: 1.64%
- % of gated cells in the positive quadrant [3]: 2.8%
- % of gated cells in the positive quadrant [4]: 1.7%
Substance: Isotype Control (antibody)
